Source: article PMC8786865

Molecular target: SARS-CoV-2 spike protein receptor-binding domain (RBD) (SARS-CoV-2) (UniProt P0DTC2)
Test: SPR

## CR3022
  Kd: 11 nM
